The supplement of paper PMC11196671

Assays:
[1] = BHET released, HPLC; higher = more BHET released; extreme values may be limits of the assay; conditions: 24 h
Protocol: (§1)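 Purified PET hydrolases, 2.5 ug enzyme on 3.5 mg amorphous PET film (aFilm) or crystalline PET powder (cryPow) in 0.5 mL of 50 mM buffer (NaCitrate pH 4.5/5.5, NaPhosphate 6.5/7.5, glycine 8.5/9.5) at 60 or 70 C with shaking for 24 h. Total aromatic product by UV-Vis (260/280 nm, blank-subtracted, normalised per mg enzyme) and individual TPA, MHET, BHET concentrations by UHPLC-DAD at 240 nm; duplicate reactions.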

[2] = MHET released, HPLC; higher = more MHET released; extreme values may be limits of the assay; conditions: 24 h
Protocol: as §1

[3] = terephthalic acid (TPA) released, HPLC; higher = more TPA released; extreme values may be limits of the assay; conditions: 24 h
Protocol: as §1

[4] = PET hydrolysis product formed (TPA+MHET+BHET, UV-Vis) per mg enzyme (mmol/mg enzyme); higher = more PET depolymerisation activity; extreme values may be limits of the assay; conditions: 2 h
Protocol: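 Purified PET hydrolases (His-SUMO cleaved, E. coli C41(DE3) small-scale expression), 2.5 ug enzyme on 3.5 mg amorphous PET film (aFilm) or crystalline PET powder (cryPow) in 0.5 mL of 50 mM buffer (NaCitrate pH 4.5/5.5, NaPhosphate 6.5/7.5, glycine 8.5/9.5) at 60 or 70 C with shaking for 2 h. Soluble aromatic products (TPA+MHET+BHET) were quantified by UV-Vis at 260/280 nm, blank-subtracted against the no-enzyme control, and normalised per mg enzyme; duplicate reactions.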

SNPYQRGPNPTRSALTADGPFSVATYTVSRLSVSGFGGGVIYYPTGTSLTFGGIAMSPGYTADASSLAWLGRRLASHGFVVLVINTNSRFDGPDSRASQLSAALNYLRTSSPSAVRARLDANRLAVAGHSMGGGGTLRIAEQNPSLKAAVPLTPWHTDKTFNTSVPVLIVGAEADTVAPVSQYAIPFYQNLPSTTPKVYVELCNASHIAPNSDNAAISVYTISWMKLWVDNDTRYRQFLCNVNDPALCDFRTNNRHCQ [LCC-A2]
Conditions | BHET released, [1] [mM] | MHET released, [2] [mM] | PET hydrolysis product formed, [4] | terephthalic acid, [3] [mM]
PET substrate: aFilm, 60 °C, pH 4.5 | 0 | 0.107 | 0 | 0.195
PET substrate: aFilm, 60 °C, pH 5.5 | 0 | 0.735 | 0.031 | 0.792
PET substrate: aFilm, 60 °C, pH 6.5 | 0 | 1.23 | 0.061 | 1.34
PET substrate: aFilm, 60 °C, pH 7.5 | 0 | 6.36 | 0.144 | 5.52
PET substrate: aFilm, 60 °C, pH 8.5 | 0 | 0.322 | 0.0742 | 0.776
PET substrate: aFilm, 60 °C, pH 9.5 | 0.0275 | 2.64 | 0.154 | 2.661
PET substrate: aFilm, 70 °C, pH 4.5 | 0 | 0 | 0 | 0.0095
PET substrate: aFilm, 70 °C, pH 5.5 | 0.00399 | 0.429 | 0.0749 | 0.455
PET substrate: aFilm, 70 °C, pH 6.5 | 0 | 0.862 | 0.138 | 0.83
PET substrate: aFilm, 70 °C, pH 7.5 | 0.0146 | 8.82 | 0.418 | 5.42
PET substrate: aFilm, 70 °C, pH 8.5 | 0 | 0.253 | 0.09 | 0.643
PET substrate: aFilm, 70 °C, pH 9.5 | 0 | 2.25 | 0.423 | 2.9
PET substrate: cryPow, 60 °C, pH 4.5 | 0.0062 | 0.1017 | 0.0208 | 0.0633
PET substrate: cryPow, 60 °C, pH 5.5 | 0 | 0.24 | 0.0469 | 0.132
PET substrate: cryPow, 60 °C, pH 6.5 | 0 | 0.476 | 0.062 | 0.232
PET substrate: cryPow, 60 °C, pH 7.5 | 0 | 0.733 | 0.127 | 0.39
PET substrate: cryPow, 60 °C, pH 8.5 | 0 | 0.261 | 0.0645 | 0.174
PET substrate: cryPow, 60 °C, pH 9.5 | 0 | 0.281 | 0.0424 | 0.789
PET substrate: cryPow, 70 °C, pH 4.5 | 0 | 0.0080455 | 0 | 0.0184
PET substrate: cryPow, 70 °C, pH 5.5 | 0 | 0.168 | 0.0282 | 0.0932
PET substrate: cryPow, 70 °C, pH 6.5 | 0 | 0.421 | 0.0641 | 0.209
PET substrate: cryPow, 70 °C, pH 7.5 | 0 | 0.748 | 0.107 | 0.639
PET substrate: cryPow, 70 °C, pH 8.5 | 0 | 0.293 | 0.0569 | 0.157
PET substrate: cryPow, 70 °C, pH 9.5 | 0 | 0.189 | 0.0859 | 0.987

SNPYQRGPNPTRSALTADGPFSVRTYTISRLSVSGFGGGVIYYPTGTSLTFGGIAMSPGYTADASSLAWLGRRLASHGFVVLVINTNSRFDGPDSRASQLSAALNYLRTSSPSAVRARLDANRLAVAGHSMGGGGTLRIAEQNPSLKAAVPLTPWHTDKTFNTSVPVLIVGAEADTVAPVSQHAIPFYQNLPSTTPKVYVELCNASHIAPNSPNAAISVYTISWMKLWVDNDTRYRQFLCNVNDPALCDFRTNNRHCQ [LCC-ICCG RIP]
Conditions | BHET released, [1] [mM] | MHET released, [2] [mM] | PET hydrolysis product formed, [4] | terephthalic acid, [3] [mM]
PET substrate: aFilm, 60 °C, pH 4.5 | 0.00297 | 0.0627 | 0 | 0.0858
PET substrate: aFilm, 60 °C, pH 5.5 | 0.00225 | 0.19 | 0.0147 | 0.202
PET substrate: aFilm, 60 °C, pH 6.5 | 0 | 0.477 | 0.0276 | 0.423
PET substrate: aFilm, 60 °C, pH 7.5 | 0.0189 | 1.93 | 0.0697 | 1.96
PET substrate: aFilm, 60 °C, pH 8.5 | 0.00205 | 0.309 | 0.0326 | 0.346
PET substrate: aFilm, 60 °C, pH 9.5 | 0.0202 | 1.34 | 0.0672 | 1.27
PET substrate: aFilm, 70 °C, pH 4.5 | 0 | 0.00485 | 0 | 0.00741
PET substrate: aFilm, 70 °C, pH 5.5 | 0.00382 | 0.23 | 0.0525 | 0.255
PET substrate: aFilm, 70 °C, pH 6.5 | 0 | 0.352 | 0.0606 | 0.361
PET substrate: aFilm, 70 °C, pH 7.5 | 0.0465 | 2.36 | 0.151 | 1.63
PET substrate: aFilm, 70 °C, pH 8.5 | 0 | 0.217 | 0.0612 | 0.2235
PET substrate: aFilm, 70 °C, pH 9.5 | 0 | 0.896 | 0.175 | 1.66
PET substrate: cryPow, 60 °C, pH 4.5 | 0.00464 | 0.0685 | 0.011 | 0.0388
PET substrate: cryPow, 60 °C, pH 5.5 | 0 | 0.1986 | 0.0235 | 0.0956
PET substrate: cryPow, 60 °C, pH 6.5 | 0 | 0.257 | 0.0304 | 0.113
PET substrate: cryPow, 60 °C, pH 7.5 | 0 | 0.292 | 0.0711 | 0.147
PET substrate: cryPow, 60 °C, pH 8.5 | 0 | 0.186 | 0.0405 | 0.121
PET substrate: cryPow, 60 °C, pH 9.5 | 0 | 0.0905 | 0.0143 | 0.307
PET substrate: cryPow, 70 °C, pH 4.5 | 0 | 0.0111 | 0 | 0.00368
PET substrate: cryPow, 70 °C, pH 5.5 | 0.00217 | 0.10965 | 0.0166 | 0.057
PET substrate: cryPow, 70 °C, pH 6.5 | 0 | 0.2013 | 0.0257 | 0.0917
PET substrate: cryPow, 70 °C, pH 7.5 | 0 | 0.367 | 0.045 | 0.322
PET substrate: cryPow, 70 °C, pH 8.5 | 0 | 0.164 | 0.0206 | 0.118
PET substrate: cryPow, 70 °C, pH 9.5 | 0 | 0.0678 | 0.0257 | 0.4635

SNPYQRGPNPTRSALTATGPFSVATYTVSRLLVSGFGGGVIYYPTGTSLTFGGIAMSPGYTADASSLAWLGRRLASHGFVVLVINTNSRFDGPDSRARQLSAALNYLRTSSPSAVRARLDANRLAVAGHSMGGGGTLRIAEQNPSLKAAVPLTPWHPDKTFNTSVPVLIVGAQADTVAPVSQHAIPFYQNLPSTTPKVYVELCNASHIAPNSPNAAISVYTISWMKLWVDNDTRYRQFLCNVNDPALCDFRTNNRHCQ [LCC-ICCG I6M]
Conditions | BHET released, [1] [mM] | MHET released, [2] [mM] | PET hydrolysis product formed, [4] | terephthalic acid, [3] [mM]
PET substrate: aFilm, 60 °C, pH 4.5 | 0 | 0.067 | 0 | 0.104
PET substrate: aFilm, 60 °C, pH 5.5 | 0.00212 | 0.339 | 0.0198 | 0.39
PET substrate: aFilm, 60 °C, pH 6.5 | 0 | 0.534 | 0.0378 | 0.499
PET substrate: aFilm, 60 °C, pH 7.5 | 0.0371 | 3.6 | 0.0723 | 2.85
PET substrate: aFilm, 60 °C, pH 8.5 | 0.00219 | 0.333 | 0.0336 | 0.541
PET substrate: aFilm, 60 °C, pH 9.5 | 0 | 1.14 | 0.0585 | 1.37
PET substrate: aFilm, 70 °C, pH 4.5 | 0 | 0 | 0 | 0
PET substrate: aFilm, 70 °C, pH 5.5 | 0.00615 | 0.236 | 0.0242 | 0.275
PET substrate: aFilm, 70 °C, pH 6.5 | 0 | 0.211 | 0.057 | 0.246
PET substrate: aFilm, 70 °C, pH 7.5 | 0 | 1.51 | 0.149 | 1.37
PET substrate: aFilm, 70 °C, pH 8.5 | 0 | 0.164 | 0.021 | 0.209
PET substrate: aFilm, 70 °C, pH 9.5 | 0 | 0.409 | 0.0849 | 1.33
PET substrate: cryPow, 60 °C, pH 4.5 | 0.00411 | 0.0591 | 0.0118 | 0.0328
PET substrate: cryPow, 60 °C, pH 5.5 | 0 | 0.178 | 0.031 | 0.102
PET substrate: cryPow, 60 °C, pH 6.5 | 0 | 0.22 | 0.0457 | 0.105
PET substrate: cryPow, 60 °C, pH 7.5 | 0 | 0.206 | 0.035 | 0.116
PET substrate: cryPow, 60 °C, pH 8.5 | 0 | 0.113 | 0.0317 | 0.0874
PET substrate: cryPow, 60 °C, pH 9.5 | 0 | 0.0594 | 0.0174 | 0.263
PET substrate: cryPow, 70 °C, pH 4.5 | 0 | 0 | 0 | 0
PET substrate: cryPow, 70 °C, pH 5.5 | 0 | 0.0931 | 0.0164 | 0.0482
PET substrate: cryPow, 70 °C, pH 6.5 | 0 | 0.136 | 0.0289 | 0.0691
PET substrate: cryPow, 70 °C, pH 7.5 | 0 | 0.275 | 0.0329 | 0.288
PET substrate: cryPow, 70 °C, pH 8.5 | 0 | 0.13 | 0.0203 | 0.1
PET substrate: cryPow, 70 °C, pH 9.5 | 0 | 0.0223 | 0.0239 | 0.25
